Measurements as given in publication PMC7387793, “Structural Basis and Evolution of Glycan Receptor Specificities within the Polyomavirus Family” (mBio, 2020).

Key:
GhPyV VP1 = biological target: T1, GhPyV VP1 (Goose hemorrhagic polyomavirus, UniProt A0A860PKB9); experiment: X-ray crystal structure (soak); type: binding; details: crystal soaked with 20 mM 2-O-Me-Neu5Ac, 17 h, MES/imidazole pH 6.5, 1.95 Å; BC2 loop site
T1 construct: truncated VP1, residues 21-286, E. coli BL21(DE3), His tag cut by thrombin (GSHM left), pentamer; site includes counterclockwise monomer

[1] = biological target: Chimpanzee polyomavirus (ChPyV) major capsid protein VP1, N- and C-terminally truncated, C154S (chimpanzee polyomavirus (ChPyV)); experiment: crystal structure; X-ray structures of truncated, assembly-incompetent VP1 pentamers, native and soaked with sialylated glycans; solved by molecular replacement with 5-fold NCS restraints
[2] = biological target: Finch polyomavirus (FiPyV) major capsid protein VP1, amino acids 22 to 291, C78S C92S (finch polyomavirus (FiPyV)); experiment: as above
[3] = biological target: Goose hemorrhagic polyomavirus (GhPyV) major capsid protein VP1, amino acids 21 to 286 (goose hemorrhagic polyomavirus (GhPyV)); experiment: as above
[4] = biological target: Human polyomavirus 12 (HPyV12) major capsid protein VP1, amino acids 27 to 299 (human polyomavirus 12 (HPyV12)); experiment: as above
[5] = biological target: New Jersey polyomavirus (NJPyV) major capsid protein VP1, amino acids 36 to 323 (New Jersey polyomavirus-2013 (NJPyV)); experiment: as above
[6] = biological target: Sheep polyomavirus (ShPyV) major capsid protein VP1, amino acids 20 to 285, C95S (sheep polyomavirus (ShPyV)); experiment: as above

## CO[C@]1(C(=O)O)C[C@H](O)[C@@H](NC(C)=O)[C@H]([C@H](O)[C@H](O)CO)O1 [2-O-Me-Neu5Ac]
GhPyV VP1
  X-ray crystal structure (soak): GhPyV VP1 with 2-O-Me-Neu5Ac

## Chimpanzee polyomavirus (ChPyV) major capsid protein VP1, N- and C-terminally truncated, C154S (domain or fragment)
[1]
  stoichiometry N: 5

## Finch polyomavirus (FiPyV) major capsid protein VP1, amino acids 22 to 291, C78S C92S (domain or fragment)
[2]
  stoichiometry N: 5

## Goose hemorrhagic polyomavirus (GhPyV) major capsid protein VP1, amino acids 21 to 286 (domain or fragment)
[3]
  stoichiometry N: 5

## Human polyomavirus 12 (HPyV12) major capsid protein VP1, amino acids 27 to 299 (domain or fragment)
[4]
  stoichiometry N: 5

## New Jersey polyomavirus (NJPyV) major capsid protein VP1, amino acids 36 to 323 (domain or fragment)
[5]
  stoichiometry N: 5

## Sheep polyomavirus (ShPyV) major capsid protein VP1, amino acids 20 to 285, C95S (domain or fragment)
[6]
  stoichiometry N: 5
